The values below come from IntAct's records for PubMed 26859459.

B1: Mitogen-activated protein kinase kinase kinase 21 (Homo sapiens), Q5TCX8 (parent)
chain: MALRGAAGATDTPVSSAGGAPGGSASSSSTSSGGSASAGAGLWAALYDYEARGEDELSLRRGQLVEVLSQDAAVSGDEGWWAGQVQRRLGIFPANYVAPCRPAASPAPPPSRPSSPVHVAFERLELKELIGAGGFGQVYRATWQGQEVAVKAARQDPEQDAAAAAESVRREARLFAMLRHPNIIELRGVCLQQPHLCLVLEFARGGALNRALAAANAAPDPRAPGPRRARRIPPHVLVNWAVQIARGMLYLHEEAFVPILHRDLKSSNILLLEKIEHDDICNKTLKITDFGLAREWHRTTKMSTAGTYAWMAPEVIKSSLFSKGSDIWSYGVLLWELLTGEVPYRGIDGLAVAYGVAVNKLTLPIPSTCPEPFAKLMKECWQQDPHIRPSFALILEQLTAIEGAVMTEMPQESFHSMQDDWKLEIQQMFDELRTKEKELRSREEELTRAALQQKSQEELLKRREQQLAEREIDVLERELNILIFQLNQEKPKVKKRKGKFKRSRLKLKDGHRISLPSDFQHKITVQASPNLDKRRSLNSSSSSPPSSPTMMPRLRAIQLTSDESNKTWGRNTVFRQEEFEDVKRNFKKKGCTWGPNSIQMKDRTDCKERIRPLSDGNSPWSTILIKNQKTMPLASLFVDQPGSCEEPKLSPDGLEHRKPKQIKLPSQAYIDLPLGKDAQRENPAEAESWEEAASANAATVSIEMTPTNSLSRSPQRKKTESALYGCTVLLASVALGLDLRELHKAQAAEEPLPKEEKKKREGIFQRASKSRRSASPPTSLPSTCGEASSPPSLPLSSALGILSTPSFSTKCLLQMDSEDPLVDSAPVTCDSEMLTPDFCPTAPGSGREPALMPRLDTDCSVSRNLPSSFLQQTCGNVPYCASSKHRPSHHRRTMSDGNPTPTGATIISATGASALPLCPSPAPHSHLPREVSPKKHSTVHIVPQRRPASLRSRSDLPQAYPQTAVSQLAQTACVVGRPGPHPTQFLAAKERTKSHVPSLLDADVEGQSRDYTVPLCRMRSKTSRPSIYELEKEFLS
partner: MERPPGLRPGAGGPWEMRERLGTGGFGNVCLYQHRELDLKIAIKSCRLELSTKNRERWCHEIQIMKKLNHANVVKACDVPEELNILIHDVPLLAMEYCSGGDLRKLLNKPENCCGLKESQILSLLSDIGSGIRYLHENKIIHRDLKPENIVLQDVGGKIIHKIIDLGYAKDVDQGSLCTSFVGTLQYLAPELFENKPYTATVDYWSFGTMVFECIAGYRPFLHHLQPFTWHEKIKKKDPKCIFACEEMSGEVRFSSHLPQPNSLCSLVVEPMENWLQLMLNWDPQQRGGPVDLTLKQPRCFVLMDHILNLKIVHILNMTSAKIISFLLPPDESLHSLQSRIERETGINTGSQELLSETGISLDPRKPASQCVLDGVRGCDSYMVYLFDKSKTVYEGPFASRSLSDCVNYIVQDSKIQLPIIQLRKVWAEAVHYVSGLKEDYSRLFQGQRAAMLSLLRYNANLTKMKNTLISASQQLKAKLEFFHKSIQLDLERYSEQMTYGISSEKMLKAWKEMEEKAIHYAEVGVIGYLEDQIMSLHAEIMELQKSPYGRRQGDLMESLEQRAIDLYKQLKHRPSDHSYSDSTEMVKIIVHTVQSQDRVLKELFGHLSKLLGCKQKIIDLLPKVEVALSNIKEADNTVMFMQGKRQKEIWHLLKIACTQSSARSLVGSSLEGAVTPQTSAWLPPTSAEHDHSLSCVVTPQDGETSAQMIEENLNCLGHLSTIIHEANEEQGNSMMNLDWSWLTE

This experiment covers variants of B1. The settings on record: with ikka_human CHUK.
Consider K151A, for which the “effect of a mutation on the interaction” value is listed as “decreasing interaction strength”.
